Assay [1] has as its target T1, C5aR N-terminal peptide (residues 9-29), PEPI (human).
T1 construct: Synthetic peptide (Biosource), residues 9-29 of C5aR; also called C5aR N-terminal peptide 9-29
T1 peptide: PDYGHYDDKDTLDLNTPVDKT
The assay can be described thus: ELISA, PEPI coated at 1 µg/ml. The procedure: ELISAs were performed as described in Current Protocols in Immunology (Unit 2.1) (Edited by J. F. Coligan, A. M. Kruisbeek, D. B. Margulies, E. M. Shevach and W. Strober), John Wiley and Sons, New York. Briefly, 96-well flat bottom ELISA plates (Maxisorp; Nunc) were coated with 1 μg/ml protein (PEPI or OPG) in PBS at 37° C. for 1 hr, then blocked with BSA at 4° C. overnight. The plates were then washed, incubated with antibodies, washed and incubated with peroxidase-conjugated sheep anti-mouse IgG antibody. The substrate used was TMB substrate reagent (PharMingen).
ELISA assays were performed as described above to measure the reactivity of MAbs 6C12, 12D4, 7F3, with PEPI and OPG. OPG is a member of the TNF-receptor superfamily which binds specifically to its ligand TNFSF11/OPGL. More specifically, OPG is an osteoblast-secreted decoy receptor that functions as a negative regulator of bone resorption.
MAbs 6C12, 12D4 and 7F3 were used in the ELISA as purified proteins at a concentration of 1 μg/mL. MAb 9C1 (which is specific for OPG) and MAb 11B9 (which recognises PEPI) were used as positive controls. These control MAbs were used in the form of undiluted tissue culture supernatant.
(In general: An ELISA detects its analyte on a solid surface through an enzyme-linked reagent.)

Assay [2] concerns the target T2, human C5aR (human, UniProt P21730 1-350).
T2 chain: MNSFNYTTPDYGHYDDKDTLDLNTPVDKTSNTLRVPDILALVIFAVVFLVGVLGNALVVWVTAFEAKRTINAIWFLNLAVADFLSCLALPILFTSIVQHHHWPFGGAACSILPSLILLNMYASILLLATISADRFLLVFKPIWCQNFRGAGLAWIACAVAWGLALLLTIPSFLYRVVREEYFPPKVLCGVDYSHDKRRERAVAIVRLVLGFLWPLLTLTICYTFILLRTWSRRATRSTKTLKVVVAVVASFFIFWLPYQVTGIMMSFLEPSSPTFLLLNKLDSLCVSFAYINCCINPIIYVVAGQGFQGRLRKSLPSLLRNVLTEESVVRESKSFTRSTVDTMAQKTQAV
The assay can be described thus: cell-based or functional assay.

The target in a further assay is T3, CX3CR1 (V28) (UniProt P49238 1-355, limits assumed).
T3 construct: whole, on cells; also called L1.2 V28
T3 sequence (looked up): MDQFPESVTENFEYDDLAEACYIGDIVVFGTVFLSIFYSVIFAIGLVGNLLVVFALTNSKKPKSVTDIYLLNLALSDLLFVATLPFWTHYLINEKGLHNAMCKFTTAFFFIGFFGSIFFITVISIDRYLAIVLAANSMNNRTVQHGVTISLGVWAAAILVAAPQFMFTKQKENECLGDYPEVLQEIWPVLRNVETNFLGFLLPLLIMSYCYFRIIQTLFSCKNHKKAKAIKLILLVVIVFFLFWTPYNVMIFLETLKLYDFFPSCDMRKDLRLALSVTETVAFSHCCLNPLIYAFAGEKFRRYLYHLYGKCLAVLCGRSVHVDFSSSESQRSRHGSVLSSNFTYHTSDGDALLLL
The assay can be described thus: flow cytometry on transfected L1.2 cells. In general terms: In flow cytometry, cells or beads pass a laser one at a time.

The next assay deals with T4, CXCR2 (UniProt P25025 1-360, limits assumed).
T4 construct: whole, on cells; also called L1.2CXCR2
T4 sequence (looked up): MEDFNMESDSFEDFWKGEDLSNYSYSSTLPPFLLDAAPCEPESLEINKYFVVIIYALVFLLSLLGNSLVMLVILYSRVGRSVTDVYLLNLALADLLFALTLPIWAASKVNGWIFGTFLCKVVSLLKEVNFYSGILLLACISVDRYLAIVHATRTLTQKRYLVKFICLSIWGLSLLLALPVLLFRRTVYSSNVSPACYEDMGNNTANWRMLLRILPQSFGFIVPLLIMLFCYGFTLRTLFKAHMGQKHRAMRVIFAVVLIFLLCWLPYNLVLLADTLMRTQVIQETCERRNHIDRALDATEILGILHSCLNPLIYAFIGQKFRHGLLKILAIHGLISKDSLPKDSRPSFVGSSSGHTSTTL
The assay can be described thus: flow cytometry on transfected L1.2 cells.

Assay [3] addresses T2, human C5aR. In words: flow cytometry on L1.2 C5aR transfectants.
Assay [4] has as its target T2, human C5aR. The assay can be described thus: flow cytometry on L1.2 cells with human C5aR, MAb 50 ug/ml, with PEPI 1-100 µM. The procedure: Anti-C5aR MAbs were added at 50 ug/ml, to a C5aR N-terminal synthetically produced peptide (residues 9-29) known as “PEPI” (Biosource; Eldridge) at concentrations ranging from 1 to 100 μM. Mouse L1.2 cells transfected with human C5a receptor and resuspended in 1% bovine serine albumin (BSA; GibcoBRL) (1×10^7/ml) were then added to give a total volume of 100 μl. The cells were incubated for 30 min at 4° C. and washed once with 0.1% BSA. Fluorescein (FITC) conjugated, sheep anti-mouse IgG, F(ab′)2 (Jackson Immunoresearch Laboratories Inc.) was used as a secondary Ab (1:200) and incubated for 15 min at 4° C., followed by an additional washing step with 0.1% BSA The cells were resuspended in 0.1% BSA and analysed by flow cytometry.

B1: MAb 7F3 (antibody, V domains shown)
VH: QVQLQQSGPELVKPGASVKISCKASGYAFSNSWMNWVKQRPGKGLEWIGRIYPGDGDTKYNGKFKGKATLTADKSSSTAYMQLSSLTSEDSAVYFCARFLLISTVTAVDYWGQGTTLTVSS
VL: DVVMTQSPLSLPVSLGNQASISCRSSQSLVHSNGNTYLHWYLQKPGQSPKLLIYKVSNRFSGVPDRFSGSGSGTDFSLKISRVEAEDLGVYFCSQSTLVPLTFGAGTKLELK
notes: Murine monoclonal antibody from hybridoma ECACC 00110609; also called monoclonal antibody 7F3
Take B1: the results for the binding result (in assay [1]; with CX3CR1 (V28); with CXCR2) were “no binding (tested: 1 µg/mL)”, “no binding” and “no binding”, respectively. Further, the “neutrophil migration towards C5a” value in the assay with human C5aR [2] was found to be 140 fold reduction.

B2: MAb 12D4 (antibody, IgG3, V domains shown)
VH: QVQLKESGPGLVAPSQSLSITCTVSGFSLTSYGVDWVRQSPGKGLEWLGVIWGVGSTNYNSALKSRLSISKDNSKSQVFLKMNSLQTDDAAMYYCASHYGYDGLGFAYWGQGTLVTVSV
VL: DVVMTQTPLSLPVSLGDQASISCRSSQSLVHSSGNTYLHWYLQKPGQSPKLLIYKVSNRFSGVPDRFSGSGSGTHFTLKISRVEAEDLGIYFCSQSTLVPPTFGGGTKLEIK
notes: Murine monoclonal antibody from hybridoma ECACC 02090227; also called 12D4-P9
For B2, the binding result was “binds” in the assay with human C5aR [3], “no binding (tested: 1 µg/mL)” in assay [1], “no binding” with CX3CR1 (V28) and “no binding” with CXCR2.

B3: MAb 6C12 (antibody, IgG3, V domains shown)
VH: QVQLQQSGPEVVKPGASVKISCKASGYAFSRSWMNWVKQRPGKGLEWIGRIDAGDGDTKYNGKFKGKATLTADKSSSTAYMQLSSLTSEDSAVYFCASLLITTVVGAMDYWGQGTSVTVSS
VL: DVVMTQIPLSLPVSLGDQTSISCRSSQSLIHSNGNTYLHWYLQKPGQSPKLLIYKVSNRFSGVPDRFSGSGSGTDFTLKISRVEAEDMGVYFCSQSTHVPPTFGGGTKLEIK
notes: Murine monoclonal antibody from hybridoma ECACC 02090226; also called 6C12 M12
For the molecule B3, the binding result is recorded as “binds” with human C5aR [4], “no binding (tested: 1 µg/mL)” in assay [1], “no binding” with CX3CR1 (V28) and “no binding” with CXCR2.

(Values after patent publication US20050244406A1 (G2 THERAPIES, published 2005).)
